Target: Recombinant human GCK (residues 16-465) fused to a N-terminal hexahistidine tag (human) (UniProt P35557)
UniProt P35557, sequence (P35557 16-465): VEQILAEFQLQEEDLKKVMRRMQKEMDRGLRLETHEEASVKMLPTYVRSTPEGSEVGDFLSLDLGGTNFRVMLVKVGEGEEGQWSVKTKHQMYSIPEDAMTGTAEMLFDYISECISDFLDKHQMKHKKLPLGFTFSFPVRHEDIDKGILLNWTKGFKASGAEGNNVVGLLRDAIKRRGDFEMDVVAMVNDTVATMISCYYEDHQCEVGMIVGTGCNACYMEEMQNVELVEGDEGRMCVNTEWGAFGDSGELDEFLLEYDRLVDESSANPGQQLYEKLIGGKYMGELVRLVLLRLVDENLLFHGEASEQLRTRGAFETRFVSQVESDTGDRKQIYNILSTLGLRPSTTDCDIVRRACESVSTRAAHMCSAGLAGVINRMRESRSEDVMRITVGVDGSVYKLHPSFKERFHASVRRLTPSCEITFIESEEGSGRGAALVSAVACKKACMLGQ

Purified NS5A-D2 protein (amino acids 250 to 342) (domain or fragment)
maximum velocity (Vmax) of purified GCK, increase in the presence of NS5A-D2: 31%

From publication PMC8780509
